# Results: the supplement of paper PMC7125110
# ± gives the standard error. Variants at the floor of the assay were thinned out.
# B1: glmS ribozyme (parent)
# chain: AUAAAAGCGCCAGAACUACAGAAAUGUAGUUGACGAGGAGGAGGUUUAUCGAAUUUUCGGCGGAUGCCUCCAAA
# Columns and labels:
# Settings in all cases: with glucosamine-6-phosphate
# glucosamine-6-phosphate [1] = variants of: B1; test: self-cleavage kobs at 40 uM GlcN6P; higher = faster cleavage; RNA array
# Summary of the method: (§1)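 Glucosamine-6-phosphate in HEPES/KCl/Mg(OAc)2 buffer, at 40 μM to 10 mM, was flowed over barcoded ribozyme variants transcribed in situ by E. coli RNA polymerase on sequenced MiSeq chips. Tracking was through a hybridised Cy3 probe at 37 °C. kobs, kcat and KM came from exponential decay fits and weighted Michaelis–Menten fits of normalised per-tile medians.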
# glucosamine-6-phosphate [2] = variants of: B1; test: self-cleavage kobs at 160 uM GlcN6P; higher = faster cleavage; RNA array
# Summary of the method: as §1
# glucosamine-6-phosphate [3] = variants of: B1; test: self-cleavage kobs at 640 uM GlcN6P; higher = faster cleavage; RNA array
# Summary of the method: as §1
# glucosamine-6-phosphate [4] = variants of: B1; test: self-cleavage kobs at 2500 uM GlcN6P; higher = faster cleavage; RNA array
# Summary of the method: as §1
# glucosamine-6-phosphate [5] = variants of: B1; test: self-cleavage kobs at 10000 uM GlcN6P; higher = faster cleavage; RNA array
# Summary of the method: as §1
Variant,self-cleavage kobs at 40 uM GlcN6P (glucosamine-6-phosphate [1]) [s⁻¹],self-cleavage kobs at 160 uM GlcN6P (glucosamine-6-phosphate [2]) [s⁻¹],self-cleavage kobs at 640 uM GlcN6P (glucosamine-6-phosphate [3]) [s⁻¹],self-cleavage kobs at 2500 uM GlcN6P (glucosamine-6-phosphate [4]) [s⁻¹],self-cleavage kobs at 10000 uM GlcN6P (glucosamine-6-phosphate [5]) [s⁻¹]
U30G A42G,0.000448 ± 7.5e-05,0.000561 ± 0.00012,0.00469 ± 0.001,0.0119 ± 0.0032,0.0206 ± 0.0039
U31A G62U,< 1e-05,< 1e-05,< 1e-05,,< 1e-05
U30C A42C,< 1e-05,< 1e-05,,< 1e-05,< 1e-05
G29U G41A C58U,< 1e-05,,,,< 1e-05
U30G C50G,0.000146 ± 6.1e-05,7.58e-05 ± 2.1e-05,7e-05 ± 2.2e-05,0.000109 ± 2.3e-05,
U30G A52U U54A,< 1e-05,,,,4.6e-05 ± 1.6e-05
G29C A64U,< 1e-05,< 1e-05,,,
U30G G35A,< 1e-05,,,< 1e-05,< 1e-05
G29C G63U,< 1e-05,,,< 1e-05,< 1e-05
U31A C34U C71U,< 1e-05,,,,
G29C U54A,6.64e-05 ± 1.5e-05,,0.000499 ± 8.4e-05,0.000928 ± 0.00025,0.00381 ± 0.00046
U30C G41A A42C C50G,< 1e-05,,,,< 1e-05
U30G G51C,< 1e-05,,,,
U30G C58G,< 1e-05,,6.88e-05 ± 3e-05,6.46e-05 ± 1.8e-05,0.000122 ± 1.4e-05
G29C G41C G44A G60A,< 1e-05,,,,< 1e-05
U31A C71G,4.17e-05 ± 1e-05,0.000162 ± 3.4e-05,0.000196 ± 3.4e-05,0.000225 ± 4.8e-05,0.000728 ± 0.00011
U31A C71U,0.000386 ± 3.4e-05,0.000552 ± 0.0001,0.00393 ± 0.00052,0.00846 ± 0.0018,0.0362 ± 0.0056
U30G A39G,0.000352 ± 8.4e-05,0.000654 ± 0.00021,0.00235 ± 0.00063,0.00681 ± 0.0014,0.0183 ± 0.007
U30G C34A G51U A64U,< 1e-05,,,,
U30A G59U,< 1e-05,,,,
U31A G62C C70G,< 1e-05,,,,
G29U G63C,< 1e-05,,< 1e-05,,< 1e-05
